T1: human sTWEAK protein (Peprotech, 310-06) (human, UniProt O43508 97-249)
T1 construct: Bought protein; also called soluble type TWEAK; ヒトsTWEAK
T1 sequence: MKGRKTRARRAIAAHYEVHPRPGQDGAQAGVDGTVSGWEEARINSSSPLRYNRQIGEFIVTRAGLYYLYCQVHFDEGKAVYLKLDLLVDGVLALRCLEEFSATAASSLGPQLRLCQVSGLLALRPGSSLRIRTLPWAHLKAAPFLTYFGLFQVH

T2: human mTWEAK variant expressed on HEK293 cells (human, UniProt O43508 1-249)
T2 construct: also called human mTWEAK mutant; membrane type TWEAK
T2 sequence: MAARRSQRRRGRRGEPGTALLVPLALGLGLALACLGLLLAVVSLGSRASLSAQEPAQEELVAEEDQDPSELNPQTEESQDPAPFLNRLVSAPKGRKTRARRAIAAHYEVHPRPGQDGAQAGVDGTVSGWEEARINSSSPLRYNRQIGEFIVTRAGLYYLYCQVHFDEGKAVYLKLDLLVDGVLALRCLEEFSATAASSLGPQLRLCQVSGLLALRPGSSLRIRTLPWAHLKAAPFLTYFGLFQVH


Assays:
[1] = target: T1, human sTWEAK protein (Peprotech, 310-06); assay: ELISA, sTWEAK immobilised at 0.5 μg/mL, antibody 80 nM to 0.0000003 nM, chemiluminescence
[2] = target: T2, human mTWEAK variant expressed on …; assay: flow cytometry (BD FACSArray) on HEK293 cells transfected with human mTWEAK vector, antibody 80 nM to 0.001355 nM, MFI
[3] = target: T2, human mTWEAK variant expressed on …; assay: hybridoma screening (Examples 3-6)
[4] = target: T1, human sTWEAK protein (Peprotech, 310-06); assay: hybridoma screening, antigen ELISA on immobilised sTWEAK (Examples 3-6)

| binding result [1] | binding result [2] | binding result [3] | binding result [4] | Binder |
| --- | --- | --- | --- | --- |
| binds | binds |  |  | fully human TBA3-25 (antibody, human IgG1, kappa, V domains shown, in most of the purified antibody: N-terminal glutamine (amino acid 1) modified to pyroglutamic acid; C-terminal lysine (amino acid 448) deleted, Human variable regions of TBA3-25 joined to human Ig gamma1 and human kappa constant regions; Analysis of the purified antibody found pyroglutamate at the heavy chain N-terminus and loss of the heavy chain C-terminal lysine in most of it; also called fully human antibody of TBA3-25; 完全ヒト型TBA3-25) VH: QVQLVQSGAEVKKPGASVRVSCKVSGYTLIDLSMHWVRQAPGNGLEWMGGFDPENGEKIYAEKFQGRVTMTEDTSTDTAYMDLSSLRSEDTAVYYCASGYSYGHFDYWGQGTLVTVSS VL: DIQMTQSPSTLSASVGDRVTITCRASQNIGRWLAWYQQKPGKAPNLLIYKASRLESGVPSRFSGSGSGTEFTLTITSLQPDDFATYYCQQYNRYSRTFGQGTKVEIKR |
| binds | binds |  |  | fully human TBA4-1 (antibody, human IgG1, kappa, V domains shown, Human variable regions of TBA4-1 joined to human Ig gamma1 and human kappa constant regions; also called fully human antibody of TBA4-1; 完全ヒト型TBA4-1) VH: QVQLVESGGGVVQPGRSLRLSCAASGFTFSSYGMHWVRQAPGKGLAWVAIISSDGNNKYYIDSVKGRFTISRDNSKNTLYLQMNNLRAEDTAVYYCAKDSHISIFGAVDSWGQGTLVTVSS VL: AIQMTQSPSSLSASVGDRVTITCRASQAIRNDLGWYQQKPGKAPKLLIYAASSLQSGVPSRFSGSGSGTDFTLTISSLQPEDFATYYCLQDYNYPWTFGQGTKVEIKR |
| binds | binds |  |  | fully human TBA3-35.1 (antibody, human IgG1, kappa, V domains shown) VH: EVQLLESGGGLVQPGGSLRLSCAASGFTFSSYAMSWVRQAPGKGLEWVSAIGNSGFYTHYADSVKGRFTISRDNSKNTLYLQMNSLRAEDTAVYYCAKVGIAVVGDYYQFGMDVWGQGTTVTVSS VL: DIQMTQSPSSLSASVGDRVTITCRASQGIRNDLGWYQQKPGKAPKLLIYGASSLQSGVPSRFSGSGSGTDFTLTISSLQPEDFATYYCLQDYNYPWTFGQGTKVEIKR |
|  |  | binds | binds | TBA4-1 (chimeric antibody) (antibody, V domains shown) VH: QVQLVESGGGVVQPGRSLRLSCAASGFTFSSYGMHWVRQAPGKGLAWVAIISSDGNNKYYIDSVKGRFTISRDNSKNTLYLQMNNLRAEDTAVYYCAKDSHISIFGAVDSWGQGTLVTVSS VL: AIQMTQSPSSLSASVGDRVTITCRASQAIRNDLGWYQQKPGKAPKLLIYAASSLQSGVPSRFSGSGSGTDFTLTISSLQPEDFATYYCLQDYNYPWTFGQGTKVEIKR |
